Publication PMC3197237

Key:
[1] = molecular target: GST-AeIAP1 BIR1 (residues 24-118 of AeIAP1) (A. aegypti); assay: pull-down
[2] = molecular target: GST-AeIAP1 BIR2 (residues 188-278 of AeIAP1) (A. aegypti); assay: pull-down

Substance | % of input bound [1] | % of input bound [2]
activated (cleaved) AeDronc: in vitro translated AeDronc partially processed by active recombinant AeDronc | 79.9 % of input | 50.2 % of input
in vitro translated full length AeDronc (enzyme) | 70.9 % of input | 45.2 % of input
